Key:
[1] = biological target: the molecule itself; assay: SEC-MALS; isolated proteins alone, 200 mM KCl
[2] = biological target: T1, αβ-tubulin heterodimer purified from porcine brains (porcine, UniProt P02550 1-451; P02554 1-445); assay: SEC-MALS; Alp14 constructs mixed with soluble αβ-tubulin (with or without DRP), Superdex 200 Increase 10/300, 80-100 mM KCl; conditions: both partners purified
T1 construct: α-tubulin of porcine brain; β-tubulin of porcine brain; Brain tubulin is a mixture of isotypes; Chains also in PDB 6MZF, 6MZE, 6MZG; also called soluble porcine αβ-tubulin; source: purified from porcine brains (two GTP-polymerization cycles at high ionic strength); copies: 1 + 1

[3] = biological target: T1, αβ-tubulin heterodimer purified from …; assay: SEC; quantitative SEC (Superdex 200 10/300) with SDS-PAGE densitometry of fractions; 2 αβ-tubulin per Alp14 subunit, with or without DRP; 100 mM KCl, 50 mM HEPES pH 7.0, 1 mM MgCl2, 1 mM β-mercaptoethanol; conditions: both partners purified
[4] = biological target: T1, αβ-tubulin heterodimer purified from …; assay: SEC; quantitative SEC (Superdex 200 10/300) with SDS-PAGE densitometry of fractions; 2 αβ-tubulin per Alp14 subunit, with or without DRP; 200 mM KCl, 50 mM HEPES pH 7.0, 1 mM MgCl2, 1 mM β-mercaptoethanol; conditions: both partners purified

B1: wt-Alp14-dimer (S. pombe Alp14 residues 1-690) (domain or fragment, UniProt O94534 1-690, looked up)
chain: MSQDQEEDYSKLPLESRIVHKVWKVRLSAYEECSKSFSLSADGSDNCFELWNNQSELWKSVLTDSNVAAQEAGTAAFVAYCRFSDPSHLLKAREISVLSISEKCLTSPRAGTRENALEALMLLVEADSAAPVIESIIPSLSARSPKVIASNVAAIASLVEQFGAKVIPSKMIIPHISNLFGHADKNVRKEASRLTVNIYRWTGDPLKDLLFKDLRPVQTKELESLFAELPTEPPKQTRFLKSQQPTSEPNVETQVEEQPALENEESEPEPSDDQFDLVEEVDVLPNVDPNLETLMASSKWKDRKEALDKLLPVLSQPKIKDNDFFNLVAILTKSVSKDANIMVVINAAHCIQAMAKGLRSNFSKYASTSINALLERSKEKKANVIESLSSAMDAVLATSSLDDLAELIASFAGNKNPQIKSSCFSLFSRSFSNMTSLPSKFTVDTCAKACVPGVSDTFEPVRSAAAEALGVLMKLVGERAINQYLSPLDDIRKSKIRSFYETATVKAKAPTKKSKVKPSKQEESKVVVPSNAKAVKKSVVPSSPVVPSPRKATNKSLSMDVSKGNAFENGPLLPRPTTRPVSRGLSRGTSSSLQQKVKASTPLNSGALNETVQNLKNMELDDPAPQPAKHSRVDRYEHPKVLEDNDSTISSLESLKRENEELREQLKVEHEENISMQKQLSELKGELNTL
notes: Alp14 (Alp14p), S. pombe, residues 1-690 (TOG1-TOG2, SK-rich region, coiled coil); also called dimeric Alp14; source: E. coli BL21, purified (Ni-IDA and/or ion exchange, SEC)
With B1 the “stoichiometry N” value [1] was 2.

B2: INT1+2 (Alp14-dimer with interfaces 1 and 2 inactivated) (domain or fragment)
chain: MSQDQEEDYSKLPLESRIVHKVWKVRLSAYEECSKSFSDAAAGSDNCFELWNNQSELWKSVLTDSNVAAQEAGTAAFVAYCRFSDPSHLLKAREISVLSISEKCLTSPRAGTRENALEALMLLVEADSAAPVIESIIPSLSARSPKVIASNVAAIASLVEQFGAKVIPSKMIIPHISNLFGHADKNVRKEASRLTVNIYRWTGDPAKDALFKDLRPVQTKELESLFAELPTEPPKQTRFLKSQQPTSEPNVETQVEEQPALENEESEPEPSDDQRAAAEEVDVLPNVDPNLETLMASSKWKDRKEALDKLLPVLSQPKILDNDFFNLVAILTKSVSKDANIMVVINAAHCIQAMAKGLASNFSKYASTSINALLERSKEKKANVIESLSSAMDAVLATSSLDDLAELIASFAGNKNPQIKSSCFSLFSRSFSNMTSDPAKFTVDTCAKACVPGVSDTFEPVRSAAAEALGVLMKLVGAAAINQYLSPLDDIRKSKIRSFYETATVKAKAPTKKSKVKPSKQEESKVVVPSNAKAVKKSVVPSSPVVPSPRKATNKSLSMDVSKGNAFENGPLLPRPTTRPVSRGLSRGTSSSLQQKVKASTPLNSGALNETVQNLKNMELDDPAPQPAKHSRVDRYEHPKVLEDNDSTISSLESLKRENEELREQLKVEHEENISMQKQLSELKGELNTL
B2 was tested, and the “stoichiometry N” value [2] was about 4, the “TOG1-TOG2:αβ-tubulin molar ratio” value [3] was 1.86 and the “TOG1-TOG2:αβ-tubulin molar ratio” value [4] was 1.46.
